Measured values reported in US20050182242A1, “Global analysis of protein activities using proteome chips” (priority 2001, published 2005).

B1: VMA13: yeast GST-HisX6 fusion protein on proteome chip (protein, UniProt P41807 2-478, looked up)
V-type proton ATPase subunit H: GATKILMDSTHFNEIRSIIRSRSVAWDALARSEELSEIDASTAKALESILVKKNIGDGLSSSNNAHSGFKVNGKTLIPLIHLLSTSDNEDCKKSVQNLIAELLSSDKYGDDTVKFFQEDPKQLEQLFDVSLKGDFQTVLISGFNVVSLLVQNGLHNVKLVEKLLKNNNLINILQNIEQMDTCYVCIRLLQELAVIPEYRDVIWLHEKKFMPTLFKILQRATDSQLATRIVATNSNHLGIQLQYHSLLLIWLLTFNPVFANELVQKYLSDFLDLLKLVKITIKEKVSRLCISIILQCCSTRVKQHKKVIKQLLLLGNALPTVQSLSERKYSDEELRQDISNLKEILENEYQELTSFDEYVAELDSKLLCWSPPHVDNGFWSDNIDEFKKDNYKIFRQLIELLQAKVRNGDVNAKQEKIIIQVALNDITHVVELLPESIDVLDKTGGKADIMELLNHSDSRVKYEALKATQAIIGYTFK
modifications: GST-His6 tag
notes: yeast GST-HisX6 fusion protein on proteome chip
B2: GPA2: yeast GST-HisX6 fusion protein on proteome chip (protein, UniProt P10823 2-449, looked up)
Guanine nucleotide-binding …: GLCASSEKNGSTPDTQTASAGSDNVGKAKVPPKQEPQKTVRTVNTANQQEKQQQRQQQPSPHNVKDRKEQNGSINNAISPTATANTSGSQQINIDSALRDRSSNVAAQPSLSDASSGSNDKELKVLLLGAGESGKSTVLQQLKILHQNGFSEQEIKEYIPLIYQNLLEIGRNLIQARTRFNVNLEPECELTQQDLSRTMSYEMPNNYTGQFPEDIAGVISTLWALPSTQDLVNGPNASKFYLMDSTPYFMENFTRITSPNYRPTQQDILRSRQMTSGIFDTVIDMGSDIKMHIYDVGGQRSERKKWIHCFDNVTLVIFCVSLSEYDQTLMEDKNQNRFQESLVLFDNIVNSRWFARTSVVLFLNKIDLFAEKLSKVPMENYFPDYTGGSDINKAAKYILWRFVQLNRANLSIYPHVTQATDTSNIRLVFAAIKETILENTLKDSGVLQ
modifications: GST-His6 tag
notes: as for B1
B3: TFB3: yeast GST-HisX6 fusion protein on proteome chip (protein, UniProt Q03290 1-321, looked up)
RNA polymerase II …: MLMDEYEENKDMCPICKTDRYLSPDVKFLVNPECYHRICESCVDRIFSLGPAQCPYKGCDKILRKNKFKTQIFDDVEVEKEVDIRKRVFNVFNKTIDDFNGDLVEYNKYLEEVEDIIYKLDHGIDVAKTEEKLRTYEELNKQLIMNNLERSRTEIESFEQRQKFEKEMKLKKRLLERQIEEEERMNKEWTKKEIVNRLSTTTQDINETIEGVKNTVKLKKSSARRKLEELNRVLKNNPYFNSNVNVQNSRLKDAVPFTPFNGDREAHPRFTLKGSVYNDPFIKDLEHRKEFIASGFNTNYAYERVLTEAFMGLGCVISEEL
modifications: GST-His6 tag
notes: as for B1
B4: PCL6: yeast GST-HisX6 fusion protein on proteome chip (protein, UniProt P40038 1-420, looked up)
PHO85 cyclin-6: MSIKGDSPSSTNASSSPKSTYSIQSDDKANLGSGNVDIRTDNSQQDSNNRRDIVVVTRVASEETLESQSSTSSMGIRPESSFNYEDASNQARVEMNNRVHGSNMNTINKYYPVRFPKNNERQLSDTNNLNEKVQGTHTVQSSTQEDKILDGDTSNSQVTPSLNIAEFPTDKLLKMLTALLTKIIKSNDRTAATNPSLTQEIENGRCLALSDNEKKYLSPVLGFRGKHVPQIGLDQYFQRIQKYCPTTNDVFLSLLVYFDRISKRCNSVTTTPKTNTAKHESPSNESSLDKANRGADKMSACNSNENNENDDSDDENTGVQRDSRAHPQMFVMDSHNIHRLIIAGITVSTKFLSDFFYSNSRYSRVGGISLQELNHLELQFLVLCDFELLISVNELQRYADLLYRFWNNAKAQSQALVTGM
modifications: GST-His6 fusion tag
notes: as for B1
B5: MUM2: yeast GST-HisX6 fusion protein on proteome chip (protein, UniProt P38236 1-366, looked up)
Protein MUM2: MNYMAYDYDPQHSLETSFNNLAFHPHQQSQQQALYESGERNDARPGLMNTLGQASKMNNSMLPQGSSASPLTGQHSLNSTTNFNMPPSMNTYNYQNVPQASMRNTLNHNNIMNGATANDYWLDPMNNMTNNKDTNGNPNDSMSSMSNMTAKTSINSTAFKNSFVPFNHVTALSMNNVNSNEMNSNKDDRMEALEVELQIKESQIESLENEIQRLKKIFNEGLNYKQNEHKYEKENCHIPQTFELPASLEVIFRKLSSSLHAKEKELAETKENLESILTALALNPTNSVTKYGRYDAESIAHKMVVRLENLTNENKEMAKMLAYGRSKETQIELQLAKKENLELREKIASLEAHLASKESSKEDVAN
modifications: GST-His6 fusion tag
notes: as for B1
B6: SGA1: yeast GST-HisX6 fusion protein on proteome chip (protein, UniProt P08019 1-549, looked up)
Glucoamylase, intracellular …: MARQKMFYNKLLGMLSVGFGFAWALENITIYEFDFGKGILDQSYGGVFSNNGPSQVQLRDAVLMNGTVVYDSNGAWDSSALEEWLQGQKKVSIEKIFENIGPSAVYPSISPGVVIASPSQTHPDYFYQWIRDSALTINSIVSHSAGPAIETLLQYLNVSFHLQRSNNTLGAGIGYTNDTVALGDPKWNVDNTAFTEDWGRPQNDGPALRSIAILKIIDYIKQSGTDLGAKYPFQSTADIFDDIVRWDLRFIIDHWNSSGFDLWEEVNGMHFFTLLVQLSAVDKSLSYFNASERSSPFVEELRQTRRDISKFLVDPANGFINGKYNYIVGTPMIADTLRSGLDISTLLAANTVHDAPSASHLPFDINDPAVLNTLHHLMLHMRSIYPINDSSKNATGIALGRYPEDVYDGYGFGEGNPWVLATCTASTTLYQLIYRHISEQHDLVVPMNNDCSNAFWSELVFSNLTTLGNDEGYLILEFNTPAFNQTIQKIFQLADSFLVKLKAHVGTDGELSEQFNKYTGFMQGAQHLTWSYTSFWDAYQIRQEVLQSL
modifications: GST-HisX6 tag
notes: as for B1
B7: APA2: yeast GST-HisX6 fusion protein on proteome chip (protein, UniProt P22108 1-325, looked up)
Diadenosine …: MIEENLKQKIHDKFVAAKKNGHLKVTHAESKKLKDPQTTTQYWVTFAPSLALKPDANKNSDSKAEDPFANPDEELVVTEDLNGDGEYKLLLNKFPVVPEHSLLVTSEFKDQRSALTPSDLMTAYNVLCSLQGDKDDDVTCERYLVFYNCGPHSGSSQDHKHLQIMQMPEKFIPFQDVLCNGKDHFLPTFNAEPLQDDKVSFAHFVLPLPESSDQVDEDLLAMCYVSLMQRALTFFQDWTNESPELTKSYNVLLTKKWICVVPRSHAKSGPPLMLNINSTGYCGMILVKDREKLENLTEDPHLVDKSLLQCGFPNTAGQKPTEYHY
modifications: GST-His6 fusion tag
notes: as for B1
B8: xrs2p: yeast DNA-repair protein (protein, UniProt P33301 1-854, looked up)
DNA repair protein XRS2: MWVVRYQNTLEDGSISFISCCLQAFKTYSIGRSSKNPLIIKNDKSISRQHITFKWEINNSSDLKHSSLCLVNKGKLTSLNKKFMKVGETFTINASDVLKSTIIELGTTPIRIEFEWINEVWNIPPHLTQFRTMLSEYGISTEISINDIPANLMISDYPKSEDNSIRELYALVSTIPMKKSRFLMELCNTLLPTSKTNLKFDEMWNDMISNPEYNVFDFDPNILLSKFMRLNNIRVLTTIKSEPRLSSLLRTFNINLFAFDNIDSLYKYVDSLEASTEYLILTTTDKKENGKILCTIKTMLTSIIDGTLSAVINMKGASSRTLDNGKFDQISEGMSTILKTSRAPEVEASPVVSKKRKLNRRRVLPLDSLDFFAGGLSTKTLSENRSLTDAKRLNCGAESKTVISSPNIAEADEKHAPFLQNALKPTEDIGKKSGHSSPGAIIVSSPNLGTVNTSEDSLDKSLQSHKLPQPSLPEVAGIGSQTISSNSADYETAAVNSMDDAEVTKNFRVNHHQNIEQPSKNIRKLSNYSREISSPLQENCKSPVKELSIKEKSGTPHAFVEAIQETKNREVKRVKSTIVELKDEELSEEAINQLKNLAIVEPSNNLLRKSFDSEGNKTSRTTEKWENSLMEPEWHKRKNFKTFVKVRPKSKAHKEEGKNNTQSSDFIRNAAFLITRNYVPLKKYSKKDTTTKWGTEENEDMFALTEMERFGSNTFMSDNINSNTIQKRSQALNRFTNEDSSNEGEEDSFSFSRCSGTAASVQPLKNKIFITDEDDLGDIDDKSDRLNHRENNRNLFVVKEMNLRPNLSEECSKQSRHSRSATSRSRGSFGASNNGDGDDDDDDGPKFTFKRRKG

Each molecule was assayed on phosphatidylcholine (PC) liposomes (assay: Yeast proteome chip probed with PC liposomes). Settings: liposome binding signal on yeast proteome chip, Cy3-streptavidin detection.
Method in brief: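 Binding of arrayed yeast proteins to sonicated PC liposomes, with or without 5% (w/w) phosphoinositide, is scored by streptavidin fluorescence on the biotinylated lipid tracer.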

Molecule	PC
B1	45.78
B2	39.33
B3	37.86
B4	31.70
B5	46.66
B6	52.83
B7	42.26

These molecules were tested on PI(3,4,5)P3 liposomes (assay: Yeast proteome chip probed with PI(3,4,5)P3 liposomes). Settings: liposome binding signal on yeast proteome chip, Cy3-streptavidin detection.

Molecule	PI(3, 4, 5)P3
B1	28.12
B2	13.05
B3	27.45
B4	26.89
B5	63.34
B6	26.55
B7	40.05

Each molecule was assayed on PI(3,4)P2 liposomes (assay: Yeast proteome chip probed with PI(3,4)P2 liposomes). Settings: liposome binding signal on yeast proteome chip, Cy3-streptavidin detection.

Molecule	PI(3, 4)P2
B1	44.27
B2	119.93
B3	47.72
B4	26.84
B5	49.29
B6	60.59
B7	31.40

The molecules below were run on PI(3)P liposomes (assay: Yeast proteome chip probed with PI(3)P liposomes). Settings: liposome binding signal on yeast proteome chip, Cy3-streptavidin detection.

Molecule	PI(3)P
B1	11.50
B2	−50.50
B3	71.00
B4	9.00
B5	81.50
B6	16.50
B7	22.50

Each molecule was assayed on PI(4,5)P2 liposomes (assay: Yeast proteome chip probed with PI(4,5)P2 liposomes). Settings: liposome binding signal on yeast proteome chip, Cy3-streptavidin detection.

Molecule	PI(4, 5)P2
B1	34.40
B2	44.85
B3	37.23
B4	3.70
B5	38.76
B6	6.75
B7	34.84

What follows are molecules tested on PI(4)P liposomes (assay: Yeast proteome chip probed with PI(4)P liposomes). Settings: liposome binding signal on yeast proteome chip, Cy3-streptavidin detection.

Molecule	PI(4)P
B1	16.55
B2	87.31
B3	43.98
B4	8.06
B5	90.15
B6	41.15
B7	43.98

Each molecule was assayed on total yeast genomic DNA (assay: Yeast proteome chip probed with labeled genomic DNA). Settings: Cy3-labeled genomic DNA, visual inspection.
Assay type: binding
Excerpt: Protein-DNA and protein-RNA interactions are important for many fundamental biological functions such as transcription regulation, chromosome segregation and maintenance, and RNA transport and processing (Williamson, 2000, Nat. Struct. Biol. 7(10):834-7). To explore the possibility of using a proteome chip to identify proteins that bind to DNA or RNA molecules, total yeast genomic DNA was labeled using Cy3-CTP and Klenow fragment, and polyA^+ was labeled using a biotinylated psoralen-derivative (31). Each probe was incubated with a different proteome chip (FIG. 3A).
The protein-nucleic acid interaction was assayed as follows. The nucleic acid robes were labeled as described by Winzeler et al. (1999, Science 285:901). Blocked proteome chips were washed three to five times in PBS buffer, and the extra liquid on the glass surface was removed by tapping the slides vertically on a KIMWIPE™. 200 μl of labeled nuclei acid probe ([…] poly(dC/dG); 100-300 mM NaCl; 50-300 mM HEPES, pH 7.0-8.5; 10 mM MgCl2) was added to the proteome chip and immediately covered by a hydrophobic plastic cover slip (GRACE BIO-LABS™, USA). After trapped air bubbles were removed, the chip was incubated in a humidity chamber in the dark at room temperature (“RT”) for one hour. To remove the cover slip, the chip was immersed into large volume of PBS buffer(>50 ml), so that the slip would float away. The chip was then moved to a second PBS bath (>50 ml) and washed 3×5 min with shaking in the dark at RT. To completely remove the liquid on the chip, the chip was spun to dryness at 1500-2000 rpm for 5-10 min at RT.

Molecule	binding of genomic DNA probe
B8	identified
